Assay results published in article PMC3521718, “Histone Deacetylase HDA6 Is Functionally Associated with AS1 in Repression of KNOX Genes in Arabidopsis” (PLoS Genetics, 2012).

Biological target: T1, glutathione S-transferase (GST)-HDA6 recombinant protein (Arabidopsis thaliana, UniProt Q9FML2 1-471)
T1 construct: Histone deacetylase HDA6 of Arabidopsis; Printed both as GST-HDA6 and as HDA6-GST; also called HDA6-GST; source: recombinant protein
T1 sequence (looked up): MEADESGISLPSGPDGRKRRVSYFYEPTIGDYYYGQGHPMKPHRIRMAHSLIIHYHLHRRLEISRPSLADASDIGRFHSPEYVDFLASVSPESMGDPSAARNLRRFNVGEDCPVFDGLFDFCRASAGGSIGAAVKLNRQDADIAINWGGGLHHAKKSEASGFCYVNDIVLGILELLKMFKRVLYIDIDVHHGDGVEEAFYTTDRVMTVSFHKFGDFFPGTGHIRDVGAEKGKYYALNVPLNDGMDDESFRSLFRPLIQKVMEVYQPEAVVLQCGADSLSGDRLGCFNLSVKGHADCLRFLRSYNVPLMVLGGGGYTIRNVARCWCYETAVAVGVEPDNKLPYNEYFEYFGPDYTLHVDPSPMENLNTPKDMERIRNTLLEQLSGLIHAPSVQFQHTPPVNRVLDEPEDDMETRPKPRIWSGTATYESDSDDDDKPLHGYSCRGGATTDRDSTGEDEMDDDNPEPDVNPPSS
Experiment: pull-down; 2 µg MBP-AS1 on MBP resin, then 2 µg GST-HDA6 for 2 h at 4°C; 20 mM Tris-HCl pH 7.5, 200 mM NaCl, 1 mM EDTA; western blot with anti-GST
Settings: both partners purified

binding result: binds
B1: MBP-AS1 recombinant protein (natural protein, Arabidopsis thaliana, UniProt O80931 1-367, looked up)
chain: MKERQRWSGEEDALLRAYVRQFGPREWHLVSERMNKPLNRDAKSCLERWKNYLKPGIKKGSLTEEEQRLVIRLQEKHGNKWKKIAAEVPGRTAKRLGKWWEVFKEKQQREEKESNKRVEPIDESKYDRILESFAEKLVKERSNVVPAAAAAATVVMANSNGGFLHSEQQVQPPNPVIPPWLATSNNGNNVVARPPSVTLTLSPSTVAAAAPQPPIPWLQQQQPERAENGPGGLVLGSMMPSCSGSSESVFLSELVECCRELEEGHRAWADHKKEAAWRLRRLELQLESEKTCRQREKMEEIEAKMKALREEQKNAMEKIEGEYREQLVGLRRDAEAKDQKLADQWTSRHIRLTKFLEQQMGCRLDRP
notes: The methods spell MBP out as 'Myelin basic protein'; source: purified recombinant protein
